Data from article PMC6361964, “A transcription factor PU.1 is critical for Ccl22 gene expression in dendritic cells and macrophages”.

B1: Site 2 probe, mouse Ccl22 promoter (dsDNA)
DNA 1: GTGGGACTTCTTCTTTCAG
DNA 2: CTGAAAGAAGAAGTCCCAC
B2: Site 1&2 probe, mouse Ccl22 promoter (dsDNA)
DNA 1: CGCTGGGGGAAGTGGGACTTCTTCTTTCAG
DNA 2: CTGAAAGAAGAAGTCCCACTTCCCCCAGCG
B3: Site 1 probe, mouse Ccl22 promoter (dsDNA)
DNA 1: GGCTGGGGGAAGTGGGAC
DNA 2: GTCCCACTTCCCCCAGCC

Target: PU.1 (UniProt P17433 1-272)
Assay: EMSA; anti-PU.1 Ab control; EMSA in 5% acrylamide gels with fluorescence detection; buffer, salt, pH and temperature not in the material
Details: protein: ivt; label: FLO (fluorescent)

Binding result, binds:
B1
B2
B3
